Molecular target: CtBP2-Gluc-N / CtBP2-Gluc-C (CtBP-Gluc-PCA reporter) (human) (UniProt P56545)
Assay: split reporter (BiFC, NanoBiT); Gluc-PCA in 293 cells co-transfected with the Gluc-N and Gluc-C fusions, luminance read; MTOB treatment gave a dose-dependent reduction of the signal

**Q.** How did the fold lower Gluc-PCA signal than the Zip-Zip dimer turn out when “CtBP2-Gluc-N / CtBP2-Gluc-C (CtBP-Gluc-PCA reporter), P56545 1-445 (natural protein; other documents disagree on this pair)” was run?
**A.** Its fold lower Gluc-PCA signal than the Zip-Zip dimer is 10 fold.

From article PMC10158025
